What was measured:
[1] = biological target: DC-Specific ICAM-3 Grabbing Non-integrin (DC-SIGN) (human) (UniProt Q9NNX6); experiment: flow cytometry on COS7 cells transfected with DC-SIGN cDNA
[2] = biological target: DC-Specific ICAM-3 Grabbing Non-integrin (DC-SIGN) (human) (UniProt Q9NNX6); experiment: cell-based or functional assay
[3] = biological target: DC-Specific ICAM-3 Grabbing Non-integrin (DC-SIGN) (human) (UniProt Q9NNX6); experiment: flow cytometry on DC day 7; meaning of the grade from the table's footnote
[4] = biological target: T1, DC-Specific ICAM-3 Grabbing Non-integrin (DC-SIGN) (human, UniProt Q9NNX6 1-404); experiment: binding to K562 transfectants (FIG. 8)
T1 construct: Type II membrane protein of 404 aa, on monocyte-derived DC or on COS7 cells transfected with pRc/CMV-DC-SIGN; in immunoprecipitation and pull-down it came from DC lysate; also called C-type lectin on dendritic cells
T1 sequence: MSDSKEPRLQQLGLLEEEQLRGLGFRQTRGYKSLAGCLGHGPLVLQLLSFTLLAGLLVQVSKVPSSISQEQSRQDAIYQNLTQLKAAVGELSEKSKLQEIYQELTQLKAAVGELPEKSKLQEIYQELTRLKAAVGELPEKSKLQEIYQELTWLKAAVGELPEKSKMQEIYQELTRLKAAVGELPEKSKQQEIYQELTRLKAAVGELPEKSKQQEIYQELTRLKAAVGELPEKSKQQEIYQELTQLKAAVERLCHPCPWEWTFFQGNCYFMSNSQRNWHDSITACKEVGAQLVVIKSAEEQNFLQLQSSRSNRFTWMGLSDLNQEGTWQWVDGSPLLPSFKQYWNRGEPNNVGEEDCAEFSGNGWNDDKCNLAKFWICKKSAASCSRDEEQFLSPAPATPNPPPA

Row | Molecule | percent of transfected cells stained [1] [%] | DC-T cell clustering (percentage of DC which have bound fluorescent T cells) [2] [%] | HIV-1 replication (p24 Gag) in DC-T cell co-culture, DC pre-incubated with antibody before the HIV-1 pulse [2] [%] | T-lymphocyte proliferation induced by allogeneic DC ([3H]methyl-thymidine uptake) [2] [%] | mean fluorescence [3] | binding result [4]
1 | AZN-D1 (antibody) | 30 | 50 | > 75 | > 75 | > 400 | –
2 | AZN-D2 (antibody) | – | 50 | > 75 | > 75 | – | –
3 | ICAM-2 expressed on K562 cells (ligand, UniProt P13598 25-275, looked up, whole, on cells) KVFEVHVRPKKLAVEPKGSLEVNCSTTCNQPEVGGLETSLDKILLDEQAQWKHYLVSNISHDTVLQCHFTCSGKQESMNSNVSVYQPPRQVILTLQPTLVAVGKSFTIECRVPTVEPLDSLTLFLFRGNETLHYETFGKAAPAPQEATATFNSTADREDGHRNFSCLAVLDLMSRGGNIFHKHSAPKMLEIYEPVSDSQMVIIVTVVSVLLSLFVTSVLLCFIFGQHLRQQRMGTYGVRAAWRRLPQAFRP | – | – | – | – | – | binds

— patent US7148329 (KATHOLIEKE UNIVERSITEIT NIJMEGEN, dated 2006)
